B1: 9I6 (antibody, V domains shown)
VH: EVQLVQSGAEVKKPGESLKISCRESGDTFPAYWIAWVRQMPGKGLEWMGIIYPIDSETTYSPSFQGQVTISADKSINTAYLQWSSLKASDSAIYYCARGTSTGLREAFHIWGQGTMVTVSS
VL: DVVMTQSPLSLAVTLGQPAYISCRSSQSLGYSDGNTYLNWFQQRPGQSPRRLIYEVSNRDSGVPDRFSGSGSGTDFTLKISRVEAEDVGTYYCMQGTHWPPMCSFGQGTKLEIK
B2: 2C12 (antibody, V domains shown)
VH: QITLRESGPTLVKPTQTLTLTCTFSGFSLNTNGVGVGWIRQPPGKALEWLALIYWNGNEGYSPSLKSRLTITKDTSKNQVVLTMTNMDPVDTATYYCVHWPQGLTTVTRLAFDIWGQGTMVTVSS
VL: QSALTQPRSVSGSPGQSVTISCTGTTSDVGRYNFVSWYQQHPGKAPKLLMYDVSQRPSGVPSRFSGSKSGNTASLTISGLQAEDEAVFYCCSYAGGNFFSYVFGTGTKVTVL

Key:
Conditions in all cases: remark: other sources report otherwise
[1] = target: T1, hCMV gH + gL + UL128 + UL130 + UL131A (co-expressed in HEK293T cells) (human cytomegalovirus), P12824; experiment: competitor: 8J16-biotin; cell staining
[2] = target: T1, hCMV gH + gL + UL128 + UL130 + UL131A …; experiment: competitor: 2F4-biotin; cell staining
[3] = target: T1, hCMV gH + gL + UL128 + UL130 + UL131A …; experiment: competitor: 6G4-biotin; cell staining
[4] = target: T1, hCMV gH + gL + UL128 + UL130 + UL131A …; experiment: competitor: 1F11-biotin; cell staining
[5] = target: T1, hCMV gH + gL + UL128 + UL130 + UL131A …; experiment: competitor: 2C12-biotin; cell staining
[6] = target: T1, hCMV gH + gL + UL128 + UL130 + UL131A …; experiment: competitor: 9I6-biotin; cell staining
[7] = target: T1, hCMV gH + gL + UL128 + UL130 + UL131A …; experiment: competitor: 8C15-biotin; cell staining
[8] = target: T1, hCMV gH + gL + UL128 + UL130 + UL131A …; experiment: competitor: 8I21-biotin; cell staining
[9] = target: T1, hCMV gH + gL + UL128 + UL130 + UL131A …; experiment: competitor: 4I22-biotin; cell staining
[10] = target: T1, hCMV gH + gL + UL128 + UL130 + UL131A …; experiment: competitor: 5A2-biotin; cell staining
[11] = target: T1, hCMV gH + gL + UL128 + UL130 + UL131A …; experiment: competitor: 15D8-biotin; cell staining
[12] = target: T1, hCMV gH + gL + UL128 + UL130 + UL131A …; experiment: competitor: 10F7-biotin; cell staining
[13] = target: T1, hCMV gH + gL + UL128 + UL130 + UL131A …; experiment: competitor: 4N10-biotin; cell staining

Binder | Inhibition of binding (%) [1] [%] | Inhibition of binding (%) [2] [%] | Inhibition of binding (%) [3] [%] | Inhibition of binding (%) [4] [%] | Inhibition of binding (%) [5] [%] | Inhibition of binding (%) [6] [%] | Inhibition of binding (%) [7] [%] | Inhibition of binding (%) [8] [%] | Inhibition of binding (%) [9] [%] | Inhibition of binding (%) [10] [%] | Inhibition of binding (%) [11] [%] | Inhibition of binding (%) [12] [%] | Inhibition of binding (%) [13] [%]
B1 | 100 | 0 | 100 | 0 | 100 | 100 | 100 | 0 | 0 |  |  |  | 
B2 | 100 | 0 | 100 | 0 | 100 | 100 | 100 | 0 | 0 | 0 | 0 | 0 | 0

From patent US20170129940A1
